# Assay results reported in PMC3967050 (Genes & Development, 2014).
# Square brackets hold non-standard residues; d marks the D form. Ends that are not written are not given here. Arg(Me2a) = CN(C)C(=N)NCCC[C@H](N)C(=O)O; Lys(Me3) = C[N+](C)(C)CCCC[C@H](N)C(=O)O; Arg(Me2s) = CN=C(NC)NCCC[C@H](N)C(=O)O; Arg(Me) = CNC(=N)NCCC[C@H](N)C(=O)O
# Assays:
# [1] = target: bulky arginine mutations of residues W72, Y98, and F251; test: ITC
# [2] = target: Human Spindlin1 50–262 (SPIN1_(50–262)) (human) (UniProt Q9Y657); test: ITC
# Chain of Human Spindlin1 50–262 (SPIN1_(50–262)) (human) (Q9Y657 50-262): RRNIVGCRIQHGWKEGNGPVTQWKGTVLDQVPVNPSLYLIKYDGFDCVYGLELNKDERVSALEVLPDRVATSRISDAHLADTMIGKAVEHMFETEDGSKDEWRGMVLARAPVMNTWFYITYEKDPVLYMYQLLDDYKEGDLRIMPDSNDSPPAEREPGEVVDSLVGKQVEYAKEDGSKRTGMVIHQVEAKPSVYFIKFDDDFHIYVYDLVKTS
# [3] = target: SPIN1_50–262 (Homo sapiens, UniProt Q9Y657); test: ITC of SPIN1_50–262 with synthetic peptides; format: binding; conditions: relative to H3 K4me3–R8me2a
# Chain of SPIN1_50–262 (Q9Y657 50-262): as above
# [4] = target: T1, Human Spindlin1 50–262 (SPIN1_(50–262)) (human, UniProt Q9Y657 50-262); test: thermo-fluor stability assay
# T1 sequence (Q9Y657 50-262): as above
# [5] = target: T1, Human Spindlin1 50–262 (SPIN1_(50–262)); test: ITC
# [6] = target: SPIN1_(50–262) E142A (human, UniProt Q9Y657 50-262, E142A); test: ITC
# Chain of SPIN1_(50–262) E142A (Q9Y657 50-262 E142A): as the sequence (Q9Y657 50-262) above, with E93A counted along it
# [7] = target: SPIN1_(50–262) D184A (human, UniProt Q9Y657 50-262, D184A); test: ITC
# Chain of SPIN1_(50–262) D184A (Q9Y657 50-262 D184A): as the sequence (Q9Y657 50-262) above, with D135A counted along it
molecule,measurement,setting,value
H3_(1–10)K4me3R8me2a peptide (from UniProt P68431 2-11),fold drop of affinity against wild-type SPIN1(50–262),[1],10 to 40 fold
H3 K4me2–R8me2a peptide,Kd,[2],510 nM
C[C@H](N)C(=O)N[C@@H](CCCNC(=N)N)C(=O)N[C@H](C(=O)N[C@@H](CCCCN(C)C)C(=O)N[C@@H](CCC(N)=O)C(=O)N[C@H](C(=O)N[C@@H](C)C(=O)N[C@@H](CCCNC(=N)N(C)C)C(=O)N[C@@H](CCCCN)C(=O)N[C@@H](CO)C(=O)O)[C@@H](C)O)[C@@H](C)O [K4me2–R8me2a],affinity reduction upon loss of one methyl group,[3],~10 fold
ART[Lys(Me3)]QTA[Arg(Me2s)]KS [H3_(1–10)K4me3R8me2s peptide],reduction of Tm against H3(1–10)K4me3R8me2a,[4],2 °C
ART[Lys(Me3)]QTA[Arg(Me)]KS [H3_(1–10)K4me3R8me1 peptide],Kd,[5],~139 nM
"ART[Lys(Me3)]QTA[Arg(Me2a)]KS (peptide, UniProt P68431 2-11, looked up) [H3_(1–10)K4me3R8me2a peptide]",fold reduction of binding affinity against wild-type SPIN1(50–262),[6],~3 fold
same,fold reduction of binding affinity against wild-type SPIN1(50–262),[7],~90 fold
same,Tm of SPIN1(50–262) with the peptide,[4],63.5 °C
ART[Lys(Me3)]QTARKS [H3_(1–10)K4me3 peptide],Kd,[5],~147 nM
same,reduction of Tm against H3(1–10)K4me3R8me2a,[4],4 °C
RRKKKCVRYIQG [TCF4_(458–469) peptide],Kd,[5],3900 nM
